Assay results reported in US20080219971A1 (VACCINEX, published 2008).

T1: Human CD100 (human, UniProt Q92854 22-734, limits assumed)
T1 construct: also called SEMA4D; Hu CD100
T1 sequence (looked up): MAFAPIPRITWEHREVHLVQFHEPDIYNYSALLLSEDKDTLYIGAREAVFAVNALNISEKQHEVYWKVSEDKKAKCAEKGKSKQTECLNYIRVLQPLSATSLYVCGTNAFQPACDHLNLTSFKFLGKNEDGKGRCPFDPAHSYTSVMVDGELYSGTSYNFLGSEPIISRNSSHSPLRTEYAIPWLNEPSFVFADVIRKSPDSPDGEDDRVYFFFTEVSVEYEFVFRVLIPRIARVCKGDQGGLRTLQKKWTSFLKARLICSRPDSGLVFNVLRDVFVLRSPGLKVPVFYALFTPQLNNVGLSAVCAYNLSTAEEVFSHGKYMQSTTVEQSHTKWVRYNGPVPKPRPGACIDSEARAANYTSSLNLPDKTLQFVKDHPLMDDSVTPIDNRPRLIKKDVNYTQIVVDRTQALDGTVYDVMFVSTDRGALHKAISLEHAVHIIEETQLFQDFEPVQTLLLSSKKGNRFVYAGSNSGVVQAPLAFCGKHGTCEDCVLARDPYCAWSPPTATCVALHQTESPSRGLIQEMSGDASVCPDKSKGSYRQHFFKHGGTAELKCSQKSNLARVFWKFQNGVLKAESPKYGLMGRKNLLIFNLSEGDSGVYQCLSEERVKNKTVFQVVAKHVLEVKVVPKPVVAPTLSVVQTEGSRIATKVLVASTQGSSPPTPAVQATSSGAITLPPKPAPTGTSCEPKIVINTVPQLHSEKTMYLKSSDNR

T2: human CD100-Fc (human, UniProt Q92854 22-734, limits assumed)
T2 construct: also called CD100-Fc antigen
T2 sequence (looked up): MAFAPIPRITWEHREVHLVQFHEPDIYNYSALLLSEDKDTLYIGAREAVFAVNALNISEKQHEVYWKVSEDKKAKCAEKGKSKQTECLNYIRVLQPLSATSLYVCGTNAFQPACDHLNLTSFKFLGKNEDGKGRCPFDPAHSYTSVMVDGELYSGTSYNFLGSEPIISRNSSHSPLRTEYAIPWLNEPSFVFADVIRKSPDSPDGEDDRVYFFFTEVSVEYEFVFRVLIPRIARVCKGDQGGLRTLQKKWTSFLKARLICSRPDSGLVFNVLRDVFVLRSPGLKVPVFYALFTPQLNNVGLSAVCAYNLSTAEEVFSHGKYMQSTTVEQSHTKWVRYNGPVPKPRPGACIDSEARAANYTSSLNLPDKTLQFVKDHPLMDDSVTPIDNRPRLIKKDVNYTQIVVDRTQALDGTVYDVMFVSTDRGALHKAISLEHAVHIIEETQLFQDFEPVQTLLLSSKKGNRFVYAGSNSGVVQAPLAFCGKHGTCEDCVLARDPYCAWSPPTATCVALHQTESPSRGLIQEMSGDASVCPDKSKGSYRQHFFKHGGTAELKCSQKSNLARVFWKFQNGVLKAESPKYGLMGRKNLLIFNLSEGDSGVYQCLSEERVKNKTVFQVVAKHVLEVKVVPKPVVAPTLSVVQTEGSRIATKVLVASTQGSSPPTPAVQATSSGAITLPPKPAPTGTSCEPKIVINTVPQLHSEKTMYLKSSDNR


Assays:
Human CD100 [1] = biological target: T1, Human CD100; assay: ELISA method of Friguet et al.; column head 'Affinity (nM) IC50 ELISA'; antigen not named
Description: Antibody affinity was measured according to the ELISA method described in Friguet et al. (1985) J Immunol Methods 77(2):305-19.

human CD100-Fc [2] = biological target: T2, human CD100-Fc; assay: competition ELISA on CD100-Fc: BD16 titrated against 5 ng/ml MAb 301, bound MAb 301 detected with anti-human Kappa HRP
Description: (§1) Competition ELISA assays were then performed. The ELISA plate was coated with CD100-Fc antigen, and BD16 or BB18 were allowed to bind individually to CD100. […] The cells were washed and antibody activity detected. Bound chimeric or human MAb was detected using anti-human Kappa HRP.

human CD100-Fc [3] = biological target: T2, human CD100-Fc; assay: competition ELISA on CD100-Fc: BD16 titrated against 5 ng/ml MAb 657, bound MAb 657 detected with anti-human Kappa HRP
Description: as §1

human serum albumin = biological target: T3, human serum albumin (human, UniProt P02768 25-609); assay: ELISA
T3 construct: Negative control antigen
T3 sequence (P02768 25-609 limits assumed): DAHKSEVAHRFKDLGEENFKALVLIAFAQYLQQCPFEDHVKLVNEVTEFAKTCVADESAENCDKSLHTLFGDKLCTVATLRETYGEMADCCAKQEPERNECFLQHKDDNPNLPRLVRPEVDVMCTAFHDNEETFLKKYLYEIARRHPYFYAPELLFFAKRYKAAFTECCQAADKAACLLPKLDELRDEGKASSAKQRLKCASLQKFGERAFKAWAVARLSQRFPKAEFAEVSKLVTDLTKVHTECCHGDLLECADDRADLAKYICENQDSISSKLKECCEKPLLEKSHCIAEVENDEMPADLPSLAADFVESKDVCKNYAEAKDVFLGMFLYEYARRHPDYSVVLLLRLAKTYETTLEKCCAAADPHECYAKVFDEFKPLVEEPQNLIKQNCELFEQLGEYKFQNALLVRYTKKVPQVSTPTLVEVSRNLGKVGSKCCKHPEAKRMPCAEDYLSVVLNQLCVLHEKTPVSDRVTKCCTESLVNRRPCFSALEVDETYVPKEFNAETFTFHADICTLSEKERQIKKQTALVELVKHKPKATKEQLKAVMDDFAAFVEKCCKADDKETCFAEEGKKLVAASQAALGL

BSA = biological target: T4, BSA (UniProt P02769 25-607); assay: ELISA
T4 construct: Negative control antigen
T4 sequence (P02769 25-607 limits assumed): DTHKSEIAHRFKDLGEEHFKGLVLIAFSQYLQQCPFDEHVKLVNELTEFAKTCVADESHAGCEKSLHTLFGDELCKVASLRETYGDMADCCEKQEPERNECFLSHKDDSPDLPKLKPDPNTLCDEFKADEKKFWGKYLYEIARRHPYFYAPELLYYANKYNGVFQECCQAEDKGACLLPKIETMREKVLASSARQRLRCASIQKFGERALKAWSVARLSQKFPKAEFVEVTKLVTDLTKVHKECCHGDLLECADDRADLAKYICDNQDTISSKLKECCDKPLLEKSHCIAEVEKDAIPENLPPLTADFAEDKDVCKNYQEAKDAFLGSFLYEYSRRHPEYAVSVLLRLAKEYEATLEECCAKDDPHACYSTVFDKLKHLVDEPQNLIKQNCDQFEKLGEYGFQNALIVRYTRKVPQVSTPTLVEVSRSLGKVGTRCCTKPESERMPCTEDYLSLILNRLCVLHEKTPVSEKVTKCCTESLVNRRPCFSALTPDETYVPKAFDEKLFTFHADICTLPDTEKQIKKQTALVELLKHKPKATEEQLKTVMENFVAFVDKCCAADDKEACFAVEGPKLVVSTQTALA

streptavidin = biological target: T5, streptavidin (UniProt P22629 37-163, limits assumed); assay: ELISA
T5 construct: Negative control antigen
T5 sequence (P22629 37-163 limits assumed): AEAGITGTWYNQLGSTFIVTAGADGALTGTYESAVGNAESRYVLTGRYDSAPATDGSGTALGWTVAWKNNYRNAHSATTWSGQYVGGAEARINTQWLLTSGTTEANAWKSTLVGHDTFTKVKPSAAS

huErb2-Fc = biological target: T6, huErb2-Fc (human, UniProt P04626 23-652); assay: ELISA
T6 construct: Negative control antigen; also called huErb2-Fc antigen

Human CD100 [4] = biological target: T1, Human CD100; assay: affinity testing, reference value of MAb 1808 on the same day; unit not printed (nM as in Table 3); MAb 1808 reference on the day MAb 2144 was measured
Human CD100 [5] = biological target: T1, Human CD100; assay: affinity testing, reference value of MAb 1808 on the same day; unit not printed (nM as in Table 3); MAb 1808 reference on the day MAb 2163 was measured
Human CD100 [6] = biological target: T1, Human CD100; assay: affinity testing, reference value of MAb 1808 on the same day; unit not printed (nM as in Table 3); MAb 1808 reference on the day MAb 2216 was measured
Human CD100 [7] = biological target: T1, Human CD100; assay: affinity testing, reference value of MAb 1808 on the same day; unit not printed (nM as in Table 3); MAb 1808 reference on the day MAb 2117 was measured
Human CD100 [8] = biological target: T1, Human CD100; assay: affinity testing, reference value of MAb 1808 on the same day; unit not printed (nM as in Table 3); MAb 1808 reference on the day MAb 2208 was measured
Human CD100 [9] = biological target: T1, Human CD100; assay: affinity testing, reference value of MAb 1808 on the same day; unit not printed (nM as in Table 3); MAb 1808 reference on the day MAb 2139 was measured
Human CD100 [10] = biological target: T1, Human CD100; assay: affinity testing, reference value of MAb 1808 on the same day; unit not printed (nM as in Table 3); MAb 1808 reference on the day MAb 2191 was measured
Human CD100 [11] = biological target: T1, Human CD100; assay: affinity testing, reference value of MAb 1808 on the same day; unit not printed (nM as in Table 3); MAb 1808 reference on the day MAb 2202 was measured
Human CD100 [12] = biological target: T1, Human CD100; assay: affinity testing, reference value of MAb 1808 on the same day; unit not printed (nM as in Table 3); MAb 1808 reference on the day MAb 2125 was measured
Human CD100 [13] = biological target: T1, Human CD100; assay: affinity testing, reference value of MAb 1808 on the same day; unit not printed (nM as in Table 3); MAb 1808 reference on the day MAb 2220 was measured
Human CD100 [14] = biological target: T1, Human CD100; assay: affinity testing, method and unit not printed in Example 10 (nM as in Table 3); mutant value, before the parentheses

Row | Binder | Kd (Human CD100 [1]) | IC50 (read off the curve) (human CD100-Fc [2]) | IC50 (read off the curve) (human CD100-Fc [3]) | binding result (human serum albumin) | binding result (BSA) | binding result (streptavidin) | binding result (huErb2-Fc) | Kd (Human CD100 [4]) | Kd (Human CD100 [5]) | Kd (Human CD100 [6]) | Kd (Human CD100 [7]) | Kd (Human CD100 [8]) | Kd (Human CD100 [9]) | Kd (Human CD100 [10]) | Kd (Human CD100 [11]) | Kd (Human CD100 [12]) | Kd (Human CD100 [13]) | Kd (Human CD100 [14])
1 | BD16 (antibody, V domains shown, Murine hybridoma anti-human CD100 antibody; also called mouse BD16; BD16 mouse MAb) VH: EVQLQQSGPELVKPGASVKMSCKASGYTFTDYYMDWVKQSHGESFEWIGRVNPYHGGATYNQKFKGKATLTVDKSSRTAYMELNSLTYEDSAVYYCAREENSYDGYYGMDYWGQGTTVTVSS VL: DIVLTQSPSSLSVSAGEKVTMDCKSSQSLFNSGNQKNYLAWYHQKPGQPPKLLIYGASTRESGVPDRFTGSGSGTDFTLTISSVQAEDLAVYYCQNDHTYPYTFGGGTKLEIK | 130 pM | ~0.02 µg/mL | ~0.03 µg/mL |  |  |  |  |  |  |  |  |  |  |  |  |  |  | 
2 | MAb 1808 (antibody, human IgG4, V domains shown, Humanized BD16, fully human frameworks, human IgG4; also called H1651/L284) VH: QVQLVQSGAEVKKPGSSVKVSCKASGYTFTDYYMDWVRQAPGQGLEWMGRVNPYHGGATYNQKFKGRVTITADKSTSTAYMELSSLRSEDTAVYYCAREENSYDGYYGMDYWGQGTLVTVSS VL: DIVMTQSPLSLPVSPGEPATINCKSSQSLFNSGNQKNYLAWYLQKPGQPPKLLIYGASTRESGVPDRFSGSGSGTDFTLTISSLQAEDVAVYYCQNDHTYPYTFGQGTKLEIK | 130 pM |  |  | no binding | no binding | no binding | no binding | 500 pM | 120 pM | 120 pM | 570 pM | 120 pM | 710 pM | 130 pM | 120 pM | 570 pM | 120 pM | 
3 | MAb 2191 (antibody, V domains shown, Double mutant of H1651 with L284; also called H1651 K23T D104T with L284) VH: QVQLVQSGAEVKKPGSSVKVSCTASGYTFTDYYMDWVRQAPGQGLEWMGRVNPYHGGATYNQKFKGRVTITADKSTSTAYMELSSLRSEDTAVYYCAREENSYTGYYGMDYWGQGTLVTVSS VL: DIVMTQSPLSLPVSPGEPATINCKSSQSLFNSGNQKNYLAWYLQKPGQPPKLLIYGASTRESGVPDRFSGSGSGTDFTLTISSLQAEDVAVYYCQNDHTYPYTFGQGTKLEIK |  |  |  |  |  |  |  |  |  |  |  |  |  |  |  |  |  | 90 pM
